Laboratory results from paper PMC8666675, “Structural basis of RNA polymerase recycling by the Swi2/Snf2 family of ATPase RapA in Escherichia coli” (The Journal of Biological Chemistry, 2021).

Legend:
[1] = biological target: T1, E. coli RNAP β′ subunit (E. coli, UniProt P0A8T7 1-1407); experiment: cryo-EM structure; EC-RapA: 4 μM RNAP core enzyme with DNA/RNA scaffold, then 5 μM RapA, 22 °C, storage buffer (10 mM Hepes pH 7.5, 50 mM NaCl, 0.1 mM EDTA, 5 mM DTT); gel filtration; 1 mM AMPPNP and CMPCPP; BS3 cross-linked; 3.3 Å; conditions: both partners purified
T1 construct: RNA polymerase β′ subunit, E. coli; Stood in the assay as a subunit of the core enzyme m2, not alone; source: E. coli BL21(DE3), pVS10, purified as part of the RNAP core enzyme
T1 sequence (P0A8T7 whole entry): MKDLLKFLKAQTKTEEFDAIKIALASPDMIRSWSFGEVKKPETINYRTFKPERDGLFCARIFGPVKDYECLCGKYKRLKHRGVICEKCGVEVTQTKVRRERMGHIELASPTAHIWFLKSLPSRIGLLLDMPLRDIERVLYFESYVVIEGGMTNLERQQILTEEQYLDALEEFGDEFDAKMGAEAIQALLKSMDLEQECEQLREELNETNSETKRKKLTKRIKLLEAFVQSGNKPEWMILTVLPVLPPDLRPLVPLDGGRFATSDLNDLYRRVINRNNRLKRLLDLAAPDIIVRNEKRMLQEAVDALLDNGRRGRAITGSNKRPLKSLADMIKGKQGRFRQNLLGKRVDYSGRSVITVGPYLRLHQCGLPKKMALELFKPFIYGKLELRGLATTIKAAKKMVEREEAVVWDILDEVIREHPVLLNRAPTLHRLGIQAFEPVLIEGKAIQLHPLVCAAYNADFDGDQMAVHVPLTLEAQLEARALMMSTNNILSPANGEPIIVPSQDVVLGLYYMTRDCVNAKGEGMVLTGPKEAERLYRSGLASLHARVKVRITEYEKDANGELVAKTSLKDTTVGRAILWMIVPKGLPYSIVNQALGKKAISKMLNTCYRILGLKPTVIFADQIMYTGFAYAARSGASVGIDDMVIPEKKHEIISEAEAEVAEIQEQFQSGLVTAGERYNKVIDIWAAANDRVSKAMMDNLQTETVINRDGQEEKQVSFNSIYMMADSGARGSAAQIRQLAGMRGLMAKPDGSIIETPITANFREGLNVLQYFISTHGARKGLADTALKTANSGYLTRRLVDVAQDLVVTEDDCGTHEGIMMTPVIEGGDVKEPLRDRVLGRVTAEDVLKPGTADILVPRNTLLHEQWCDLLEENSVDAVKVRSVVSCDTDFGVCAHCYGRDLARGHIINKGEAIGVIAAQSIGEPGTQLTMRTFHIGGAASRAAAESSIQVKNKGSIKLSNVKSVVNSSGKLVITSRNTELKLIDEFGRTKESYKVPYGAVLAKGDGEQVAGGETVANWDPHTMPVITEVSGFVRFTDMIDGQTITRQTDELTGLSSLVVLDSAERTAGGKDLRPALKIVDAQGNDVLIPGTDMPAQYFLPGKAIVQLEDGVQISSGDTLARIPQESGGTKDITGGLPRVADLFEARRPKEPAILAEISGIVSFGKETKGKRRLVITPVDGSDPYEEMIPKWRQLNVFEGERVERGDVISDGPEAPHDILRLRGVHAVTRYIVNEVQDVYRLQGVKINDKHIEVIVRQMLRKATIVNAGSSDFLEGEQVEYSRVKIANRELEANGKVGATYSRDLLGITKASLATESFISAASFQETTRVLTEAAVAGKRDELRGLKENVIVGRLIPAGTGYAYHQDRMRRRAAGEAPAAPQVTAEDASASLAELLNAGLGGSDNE

[2] = biological target: T2, E. coli RNAP β subunit (E. coli, UniProt P0A8V2 1-1342); experiment: as above; conditions: both partners purified
T2 construct: RNA polymerase β subunit, E. coli; Stood in the assay as a subunit of the core enzyme m2, not alone; source: E. coli BL21(DE3), pVS10, purified as part of the RNAP core enzyme
T2 sequence (P0A8V2 whole entry): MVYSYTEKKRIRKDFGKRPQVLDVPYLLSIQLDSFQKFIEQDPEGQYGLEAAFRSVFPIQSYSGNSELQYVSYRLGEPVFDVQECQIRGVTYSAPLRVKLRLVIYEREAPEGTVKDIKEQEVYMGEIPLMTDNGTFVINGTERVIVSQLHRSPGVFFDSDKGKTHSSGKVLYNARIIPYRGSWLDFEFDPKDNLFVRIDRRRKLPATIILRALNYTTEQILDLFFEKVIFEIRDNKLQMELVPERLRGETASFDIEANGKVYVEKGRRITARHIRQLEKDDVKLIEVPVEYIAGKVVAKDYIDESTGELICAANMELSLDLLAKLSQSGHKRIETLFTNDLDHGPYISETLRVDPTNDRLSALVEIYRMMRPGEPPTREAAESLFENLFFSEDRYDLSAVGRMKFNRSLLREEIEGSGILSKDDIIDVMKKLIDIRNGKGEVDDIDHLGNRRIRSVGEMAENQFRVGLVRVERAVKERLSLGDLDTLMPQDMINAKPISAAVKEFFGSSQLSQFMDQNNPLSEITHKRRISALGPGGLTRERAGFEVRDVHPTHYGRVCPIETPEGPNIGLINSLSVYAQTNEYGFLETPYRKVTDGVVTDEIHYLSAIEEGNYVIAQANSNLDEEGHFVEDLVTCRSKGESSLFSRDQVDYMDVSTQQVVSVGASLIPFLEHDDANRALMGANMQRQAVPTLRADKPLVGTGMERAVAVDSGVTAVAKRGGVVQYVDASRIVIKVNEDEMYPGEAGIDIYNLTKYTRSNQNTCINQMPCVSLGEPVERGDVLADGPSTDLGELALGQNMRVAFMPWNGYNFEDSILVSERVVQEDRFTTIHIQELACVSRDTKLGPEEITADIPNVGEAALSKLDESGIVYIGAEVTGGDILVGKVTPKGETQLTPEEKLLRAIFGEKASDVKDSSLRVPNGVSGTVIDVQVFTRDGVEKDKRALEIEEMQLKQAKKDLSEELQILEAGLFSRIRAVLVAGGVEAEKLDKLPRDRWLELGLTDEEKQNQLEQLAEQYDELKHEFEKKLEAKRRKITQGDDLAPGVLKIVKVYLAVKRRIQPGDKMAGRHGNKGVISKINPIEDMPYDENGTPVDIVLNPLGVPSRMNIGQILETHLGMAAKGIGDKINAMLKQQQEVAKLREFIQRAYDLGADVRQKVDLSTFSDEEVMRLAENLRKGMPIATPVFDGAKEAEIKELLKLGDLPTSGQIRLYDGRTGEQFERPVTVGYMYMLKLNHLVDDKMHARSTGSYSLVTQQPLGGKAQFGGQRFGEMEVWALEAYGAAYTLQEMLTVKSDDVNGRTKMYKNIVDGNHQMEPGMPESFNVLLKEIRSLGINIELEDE

B1: E. coli RapA protein (enzyme, UniProt P60240 1-968, looked up)
chain: MPFTLGQRWISDTESELGLGTVVAVDARTVTLLFPSTGENRLYARSDSPVTRVMFNPGDTITSHDGWQMQVEEVKEENGLLTYIGTRLDTEESGVALREVFLDSKLVFSKPQDRLFAGQIDRMDRFALRYRARKYSSEQFRMPYSGLRGQRTSLIPHQLNIAHDVGRRHAPRVLLADEVGLGKTIEAGMILHQQLLSGAAERVLIIVPETLQHQWLVEMLRRFNLRFALFDDERYAEAQHDAYNPFDTEQLVICSLDFARRSKQRLEHLCEAEWDLLVVDEAHHLVWSEDAPSREYQAIEQLAEHVPGVLLLTATPEQLGMESHFARLRLLDPNRFHDFAQFVEEQKNYRPVADAVAMLLAGNKLSNDELNMLGEMIGEQDIEPLLQAANSDSEDAQSARQELVSMLMDRHGTSRVLFRNTRNGVKGFPKRELHTIKLPLPTQYQTAIKVSGIMGARKSAEDRARDMLYPERIYQEFEGDNATWWNFDPRVEWLMGYLTSHRSQKVLVICAKAATALQLEQVLREREGIRAAVFHEGMSIIERDRAAAWFAEEDTGAQVLLCSEIGSEGRNFQFASHMVMFDLPFNPDLLEQRIGRLDRIGQAHDIQIHVPYLEKTAQSVLVRWYHEGLDAFEHTCPTGRTIYDSVYNDLINYLASPDQTEGFDDLIKNCREQHEALKAQLEQGRDRLLEIHSNGGEKAQALAESIEEQDDDTNLIAFAMNLFDIIGINQDDRGDNMIVLTPSDHMLVPDFPGLSEDGITITFDREVALAREDAQFITWEHPLIRNGLDLILSGDTGSSTISLLKNKALPVGTLLVELIYVVEAQAPKQLQLNRFLPPTPVRMLLDKNGNNLAAQVEFETFNRQLNAVNRHTGSKLVNAVQQDVHAILQLGEAQIEKSARALIDAARNEADEKLSAELSRLEALRAVNPNIRDDELTAIESNRQQVMESLDQAGWRLDALRLIVVTHQ
notes: RapA, Swi2/Snf2 family ATPase of E. coli, full-length; NTD is residues 1-109; In the EC-RapA sample the complex was cross-linked with BS3; also called τ factor
- binding result [1]: binds
- binding result [2]: binds
